The supplement of paper PMC7877785
± gives the uncertainty stated by the source.

Assay: self-splicing fitness, log relative to wild type (ln ratio); higher = more splicing; Tetrahymena group I intron in knt gene, E. coli kanamycin selection, DiMSum; sequences stand for … in CUCUCU…GGAGGGAAAAGUUAUCAGGCAUGCACCUGGUAGCUAGUCUUUAAACCAAUAGAUUGCAUCGGUUUAAAAGGCAAGACCGUCAAAUUGCGGGAAAGGGGUCAACAGCCGUUCAGUACCAAGUCUCAGGGGAAACUUUGAGAUGGCCUUGCAAAGGGUAUGGUAAUAAGCUGACGGACAUGGUCCUAACCACGCAGCCAAGUCCUAAGUCAACAGAUCUUCUGUUGAUAUGGAUGCAGUUCACAGACUAAAUGUCGGUCGGGGAAGAUGUAUUCUUCUCAUAAGAUAUAGUCGGACCUCUCCUUAAUGGGAGCUAGCGGAUGAAGUGAUGCAACACUGGAGCCGCUGGGAACUAAUUUGUAUGCGAAAGUAUAUUGAUUAGUUUUGGAGUACUCGUGGUCG
Procedure, shortened: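 Pooled colonies went to amplicon sequencing on an Illumina HiSeq 2500 after six replicate transformations. The plates were LB agar with 100 μg/mL carbenicillin, 50 μM IPTG and 0.2% rhamnose, with or without 25 μg/mL kanamycin, incubated overnight at 37°C or 30°C. The E. coli BL21(DE3) library had all eight P1ex-region intron nucleotides randomised, the intron placed in the knt kanamycin-resistance gene on pET-22b(+). DiMSum fitness is the error-weighted combination of replicate fold changes, kanamycin against none, normalised to wild type.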

Sequence | self-splicing fitness (ln) (30 °C) | self-splicing fitness (ln) (37 °C)
UACCAGCAAUAUUACGGCAA | -0.203 ± 0.067 | 0.462 ± 0.094
GGUGAGCAAUAUUACGUGGU | -3.51 ± 0.47 | -2.36 ± 0.24
AAGAAGCAAUAUUACGAUCU | 0.00748 ± 0.089 | -0.373 ± 0.11
GUAAAGCAAUAUUACGCCCA | 0.335 ± 0.062 | 0.419 ± 0.085
CGUGAGCAAUAUUACGUGUA | -3.18 ± 0.22 | -3.91 ± 0.31
AAUGAGCAAUAUUACGGAGC | -3.43 ± 0.25 | -1.03 ± 0.44
UACAAGCAAUAUUACGGAGA | -2.4 ± 0.17 | -3.27 ± 0.23
UAACAGCAAUAUUACGGUCC | -2.94 ± 0.15 | -1.99 ± 0.19
GUUCAGCAAUAUUACGGCGG | -4.13 ± 0.47 | -2.06 ± 0.38
UACCAGCAAUAUUACGGUAC | -3.72 ± 0.22 | -2.04 ± 0.16
AGUGAGCAAUAUUACGCCAU | -2.58 ± 0.43 | -0.383 ± 0.35
CGAAAGCAAUAUUACGGAGC | -4.16 ± 0.25 | -2.22 ± 0.16
AGAUAGCAAUAUUACGCGGU | -2.93 ± 0.17 | -2.28 ± 0.15
GCGGAGCAAUAUUACGAUCU | -1.97 ± 0.25 | -0.0473 ± 0.33
GCAGAGCAAUAUUACGGGCU | -1.78 ± 0.3 | -2.03 ± 0.39
UGGUAGCAAUAUUACGACCU | -0.697 ± 0.13 | 0.261 ± 0.14
GAGAAGCAAUAUUACGGAAG | -3.57 ± 0.16 | -2.39 ± 0.14
GCUGAGCAAUAUUACGUUAC | – | -2.37 ± 0.32
CGACAGCAAUAUUACGAUUA | -1.99 ± 0.12 | -0.873 ± 0.1
AACCAGCAAUAUUACGACUC | -0.597 ± 0.053 | -0.327 ± 0.066
AACUAGCAAUAUUACGGUAC | -3.39 ± 0.28 | -1.9 ± 0.17
AAGAAGCAAUAUUACGACUG | -0.231 ± 0.089 | 0.323 ± 0.16
GGCCAGCAAUAUUACGGAAA | -1.27 ± 0.11 | -0.606 ± 0.13
AGCCAGCAAUAUUACGCGGC | -3.54 ± 0.25 | -3.42 ± 0.31
GCUAAGCAAUAUUACGAGAA | -0.77 ± 0.47 | -1.64 ± 0.31

Sequence | self-splicing fitness (ln) (30 °C) | self-splicing fitness (ln) (37 °C)
UGCGAGCAAUAUUACGUUCC | -2.19 ± 0.18 | -2.66 ± 0.34
UCGUAGCAAUAUUACGACCA | -1.35 ± 0.3 | –
CAUGAGCAAUAUUACGGAAG | -1.47 ± 0.077 | -0.61 ± 0.1
CUCCAGCAAUAUUACGAAAU | -2.83 ± 0.19 | -1.75 ± 0.31
GAGGAGCAAUAUUACGAGCA | -3.52 ± 0.48 | -2.4 ± 0.46
GCCUAGCAAUAUUACGCUGA | -1.69 ± 0.074 | -0.266 ± 0.079
ACGCAGCAAUAUUACGACAG | -1.11 ± 0.076 | -0.445 ± 0.099
GUCAAGCAAUAUUACGGCGA | -2.1 ± 0.14 | -0.0443 ± 0.12
ACGCAGCAAUAUUACGUCCG | -0.744 ± 0.085 | -0.408 ± 0.1
GGACAGCAAUAUUACGUGAG | 0.177 ± 0.058 | -0.254 ± 0.062
ACCGAGCAAUAUUACGAUAU | -3.68 ± 0.18 | -1.54 ± 0.14
CAGAAGCAAUAUUACGCGGU | -3.61 ± 0.12 | -2.34 ± 0.14
CUGCAGCAAUAUUACGCACU | -3.45 ± 0.2 | -0.783 ± 0.17
GGCGAGCAAUAUUACGCAAC | -0.841 ± 0.36 | -0.673 ± 0.27
UUGCAGCAAUAUUACGUAGG | -0.924 ± 0.086 | -0.486 ± 0.11
CAGUAGCAAUAUUACGCGCU | -1.56 ± 0.26 | -1.28 ± 0.27
UGCUAGCAAUAUUACGCGUA | -0.838 ± 0.11 | -0.531 ± 0.1
AACUAGCAAUAUUACGAGGU | -3.14 ± 0.3 | -2.01 ± 0.25
ACGCAGCAAUAUUACGGCCG | -1.66 ± 0.11 | -0.0837 ± 0.15
GCGCAGCAAUAUUACGUUUA | -1.01 ± 0.1 | -0.423 ± 0.1
UUGAAGCAAUAUUACGUUAA | -1.47 ± 0.075 | -0.311 ± 0.11
AAGAAGCAAUAUUACGACCG | -1.05 ± 0.088 | 0.483 ± 0.14
AAUUAGCAAUAUUACGCGCC | -0.89 ± 0.23 | -0.821 ± 0.34
CAAUAGCAAUAUUACGUUAA | -2.95 ± 0.18 | -2.8 ± 0.23
CCUGAGCAAUAUUACGCGUC | -2.89 ± 0.27 | -3.02 ± 0.4

Sequence | self-splicing fitness (ln) (30 °C) | self-splicing fitness (ln) (37 °C)
CGAAAGCAAUAUUACGUGGU | -3.92 ± 0.14 | -2.11 ± 0.13
ACCCAGCAAUAUUACGAACG | -3.06 ± 0.14 | -1.4 ± 0.14
GGUCAGCAAUAUUACGUGGG | -2.15 ± 0.089 | -2.38 ± 0.15
UGCAAGCAAUAUUACGUCUA | -0.304 ± 0.047 | 0.371 ± 0.062
UGCGAGCAAUAUUACGAUCG | -2.97 ± 0.27 | -1.38 ± 0.17
CUUGAGCAAUAUUACGCGAG | -3.64 ± 0.16 | -2.82 ± 0.23
AAAGAGCAAUAUUACGAGGC | -3.57 ± 0.24 | -2.74 ± 0.28
UCCUAGCAAUAUUACGAAAG | -2.86 ± 0.33 | –
GACUAGCAAUAUUACGCGGU | -3.62 ± 0.17 | -3.27 ± 0.28
AUAUAGCAAUAUUACGUUAU | -3.02 ± 0.13 | -1.65 ± 0.12
AUUUAGCAAUAUUACGGUCG | -1.98 ± 0.15 | -1.38 ± 0.22
GAAUAGCAAUAUUACGACGA | -0.436 ± 0.36 | 0.000314 ± 0.24
GUGUAGCAAUAUUACGCGAC | -1.33 ± 0.45 | -1.02 ± 0.27
CGUCAGCAAUAUUACGUCUC | -2.87 ± 0.24 | -0.999 ± 0.14
GUGGAGCAAUAUUACGAUCA | -2.19 ± 0.49 | -0.101 ± 0.2
UGUUAGCAAUAUUACGCUCG | -0.015 ± 0.18 | -0.0235 ± 0.21
CUUGAGCAAUAUUACGAGUU | -4.15 ± 0.23 | -2.33 ± 0.17
UCAGAGCAAUAUUACGGGAU | -3.39 ± 0.47 | -2.58 ± 0.48
GACGAGCAAUAUUACGAAAU | -2.5 ± 0.23 | –
UAGAAGCAAUAUUACGGCUA | -0.274 ± 0.12 | -0.13 ± 0.16
GACUAGCAAUAUUACGUGUA | -1.06 ± 0.067 | -0.258 ± 0.069
GCGUAGCAAUAUUACGUGUU | -3.07 ± 0.21 | -0.761 ± 0.12
CCUAAGCAAUAUUACGCACC | -3.09 ± 0.27 | -3.03 ± 0.28
AGCAAGCAAUAUUACGCAAG | -2.4 ± 0.2 | -2.11 ± 0.26
GCGAAGCAAUAUUACGUAUG | -4.39 ± 0.26 | -2.81 ± 0.16

Sequence | self-splicing fitness (ln) (30 °C) | self-splicing fitness (ln) (37 °C)
AUUAAGCAAUAUUACGCUGG | -1.25 ± 0.12 | -1.39 ± 0.22
AGCAAGCAAUAUUACGGAGU | -2.98 ± 0.13 | -1.6 ± 0.12
GUUGAGCAAUAUUACGAUAU | -2.32 ± 0.13 | -1.31 ± 0.12
UAGUAGCAAUAUUACGGGGC | -3.84 ± 0.39 | -2.68 ± 0.27
GGCCAGCAAUAUUACGGCCG | -3.47 ± 0.22 | -3 ± 0.23
UGUUAGCAAUAUUACGUAGU | -3.48 ± 0.33 | -2.22 ± 0.27
CGCUAGCAAUAUUACGGGCU | -1.85 ± 0.17 | -1.33 ± 0.2
AGUCAGCAAUAUUACGUCUC | -4.29 ± 0.31 | -2.01 ± 0.15
ACGGAGCAAUAUUACGUUCU | -3.16 ± 0.31 | -2.52 ± 0.22
ACGAAGCAAUAUUACGGAAU | -3.14 ± 0.12 | -1.34 ± 0.1
AUAAAGCAAUAUUACGAAUC | -4.22 ± 0.42 | -1.31 ± 0.22
UGGCAGCAAUAUUACGAGCU | -1.98 ± 0.16 | -1.91 ± 0.19
AAGCAGCAAUAUUACGUCUG | -4.47 ± 0.37 | -1.72 ± 0.26
CCGAAGCAAUAUUACGCCUC | -1.84 ± 0.28 | –
AACUAGCAAUAUUACGGUCC | -0.628 ± 0.13 | -0.637 ± 0.15
ACUAAGCAAUAUUACGAUCC | -1.02 ± 0.14 | -0.609 ± 0.16
GACGAGCAAUAUUACGUGGA | -4 ± 0.21 | -2.92 ± 0.21
AAAUAGCAAUAUUACGGAAU | -3.69 ± 0.17 | -2.24 ± 0.16
GCCCAGCAAUAUUACGGCCA | -2.6 ± 0.27 | -0.571 ± 0.18
GUAAAGCAAUAUUACGCAGC | -2.42 ± 0.22 | -1.25 ± 0.2
GACGAGCAAUAUUACGAGAU | -2.23 ± 0.3 | –
GAAAAGCAAUAUUACGGCCU | -0.569 ± 0.12 | 0.296 ± 0.14
